Target: T1, gp130-ICD (Homo sapiens, UniProt P40189)
T1 construct: in order to isolate the intracellular portion of human gp130; expressed in transfected cells; host or cells: Saccharomyces cerevisiae strain CG-1945; cDNA obtained by RT-PCR from HepG2 cells and cloned into pGADGH (also pAS2-1)
T1 sequence (P40189 642-918 limits assumed): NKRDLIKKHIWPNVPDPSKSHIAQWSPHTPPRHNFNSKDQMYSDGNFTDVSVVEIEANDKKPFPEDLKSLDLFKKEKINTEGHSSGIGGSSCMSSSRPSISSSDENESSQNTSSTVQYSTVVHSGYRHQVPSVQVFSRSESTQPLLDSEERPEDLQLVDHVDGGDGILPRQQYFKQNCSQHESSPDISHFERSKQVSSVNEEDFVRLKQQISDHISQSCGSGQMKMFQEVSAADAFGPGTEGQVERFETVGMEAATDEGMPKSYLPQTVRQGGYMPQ
Assay: Liquid β-galactosidase (LacZ) assay in yeast two-hybrid system
Type: cell-based
Conditions: combination of clone E and gp130-ICD in yeast cells; three independent experiments
Text: We have also performed liquid β-galactosidase assays to quantify transcriptional activity: as shown in the FIG. 5, in the presence of gp130-ICD/GAL4AD the fusion protein clone E/GAL4BD was able to produce a transcriptional activity of lacZ gene about 2 to 3 fold higher than in the absence of gp130-ICD/GAL4AD, thus confirming the interaction detected after the first selection.
Liquid β-Galactosidase Assay
We prepared 5-ml overnight culture in liquid SD selection medium appropriate for plasmids.
We transferred 2 ml of the culture to 8 ml of YPD and incubate at 30° C. for 3-5 hours until the cells are in the mid-log phase (O.D.600=0.5-0.8).
The culture was centrifuged at 14,000 rpm for 30 seconds: in the next step, we remove the supernatants, wash the cells with a volume of Z-buffer and resuspend the pellet in 900 μl of Z buffer.
Immediately, two or more freeze/thaw cycles were performed, placing the tubes in liquid nitrogen and in a 37° C. water bath for 0.5-1 minute. […]
The reaction was stopped by adding 0.4 ml of 1 M Na2CO3: we recorded the time needed to obtain the results and O.D.420 of the samples.
β-galactosidase units were calculated by this formula: β-galactosidase units=1,000×O.D.420/(t×V×O.D.600) […]

- β-galactosidase (LacZ) activity in liquid assay: about 3 units/ml
Substance: Clone E: peptide isolated by THS, homology group II, SEQ ID NO:6; homology with JAK1 JH4 domain (WGDNEWWRSEPHKMEL)
